{"source": "patent US6548634B1", "about": "“Synthetic peptides having FGF receptor affinity” (priority 1998, dated 2003)", "key": {"FGFR": {"test_system": "FGFR", "test": "FGFR autophosphorylation in Swiss 3T3 cells (anti-FGFR IP, anti-phosphotyrosine blot)", "type": "cell-based", "settings": "1.0 nM bFGF or 50 nM C19jun, 15 U/ml heparin, 15 minutes", "protocol": "(§1) To determine whether C19jun could activate FGF receptors in vivo, Swiss 3T3 cells were treated with basic FGF (bFGF) or purified C19jun protein. Cell extracts were then immunoprecipitated with anti-FGFR antibodies, analyzed by SDS-PAGE and immunoblotted with anti-phosphotyrosine antibodies. Extracts from bFGF and C19jun-stimulated 293 cells expressing FGFR1c were also immunoblotted with phospho-MAP Kinase-specific antibodies.\n(§2) Swiss 3T3 fibroblasts, or 293 cells expressing full-length FGFRIc were incubated in quiescing media (DMEM, 1 μg/ml insulin, 5 μg/ml transferrin, 0.5 mg/ml BSA) for 24-48 hrs, and then stimulated with 1.0 nM bFGF or 50 nM refolded C19jun protein in the presence of 15 U/ml heparin for 15 minutes at 37° C. The cells were lysed and aliquots of lysate containing equal amounts of total protein were either analyzed directly by immunoblotting with phospho-MAPKspecific antibodies and anti-total MAPK antisera (New England Biolabs) or immunoprecipitated with anti-FGFR antisera and immunoblotted with anti-phosphotyrosine antibodies (Upstate Biotechnology, Inc.). Both bFGF and C19jun induced FGFR autophosphorylation and MAP kinase phosphorylation."}, "Swiss 3T3 fibroblasts": {"test_system": "Swiss 3T3 fibroblasts", "test": "BrdU incorporation (mitogenesis) in Swiss 3T3 fibroblasts", "type": "cell-based", "settings": "Swiss 3T3, presence and absence of heparin", "protocol": "6×Histidine-tagged Clone 19-jun protein (FIG. 1A) was expressed in bacteria and purified by metal affinity chromatography as described in Example 5. Assay of BrdU incorporation, a measure of entry of cells into S-phase and therefore of mitogenesis, was performed according to manufacturers instructions (Cell proliferation ELISA, BrdU, Cat. No. 1-647-229, Boehringer-Mannheim, Indianapolis, Ind.). Briefly, 1×10^4 Swiss 3T3 cells per well were plated on gelatin-coated 96-well microtiter plates in complete media (DMEM, 10% FCS, antibiotics), incubated 24 hours, and the media changed to quiescent media for an addition 24 hours (DMEM containing 0.5 mg/ml bovine serum albumin, 1 μg/ml insulin, 5 μg/ml transferrin, antibiotics). The cells were then treated with bFGF or Clone 19-jun protein at the indicated concentrations in the presence of 15 U/ml heparin. 18 hours later, BrdU was added, the cells incubated an additional 4 hours, and assayed as described. […] Heparin alone had no effect, nor did a control protein expressed and purified in the same manner in which the C19 sequence was deleted."}, "PC12 cells": {"test_system": "PC12 cells", "test": "PC12 cell neurite outgrowth", "type": "cell-based", "protocol": "1×10^4 PC12 cells per well were plated on mouse laminin-and-poly-L-lysine-coated 24-well plates in 1 ml of media (RPMI 1640, 10% horse serum, 5% FCS, antibiotics) and stimulated with 1 nM bFGF or 2 nM C19-jun protein in the presence of 15 U/ml heparin for 4 days."}, "[1]": {"test_system": "293 cells expressing full-length FGFR1c", "test": "MAP kinase phosphorylation in 293 cells expressing FGFR1c", "type": "cell-based", "settings": "1.0 nM bFGF or 50 nM C19jun, 15 U/ml heparin, 15 minutes", "protocol": "as §1, §2"}, "control L6 cells": {"test_system": "control L6 cells", "test": "c-fos mRNA expression in control L6 cells that do not express FGFR", "type": "cell-based"}, "human endothelial cells": {"test_system": "human endothelial cells", "test": "Proliferation of human endothelial cells", "type": "cell-based"}, "[2]": {"test": "Binding to heparin agarose beads"}, "FGFR1c ECD": {"target": "T1, FGFR1c ECD (Homo sapiens, UniProt P11362)", "T1 construct": "human FGFR Ic (residues 1-377); made in house", "T1 sequence (P11362 22-377)": "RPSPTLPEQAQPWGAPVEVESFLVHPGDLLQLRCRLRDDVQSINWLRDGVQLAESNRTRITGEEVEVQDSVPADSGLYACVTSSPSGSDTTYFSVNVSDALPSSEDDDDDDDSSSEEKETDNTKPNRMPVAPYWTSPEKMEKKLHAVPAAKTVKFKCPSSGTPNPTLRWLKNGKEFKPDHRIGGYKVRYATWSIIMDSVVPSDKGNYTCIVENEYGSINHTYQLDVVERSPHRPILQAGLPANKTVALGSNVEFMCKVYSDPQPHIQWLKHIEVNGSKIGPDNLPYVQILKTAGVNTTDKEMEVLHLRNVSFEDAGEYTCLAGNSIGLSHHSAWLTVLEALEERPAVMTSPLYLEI", "test": "BIAcore real-time kinetic analysis on immobilized FGFR1c ECD", "type": "binding", "settings": "in vitro, absence of heparin", "protocol": "Apparent affinities for immobilized FGFR1c ECD were determined using BIAcore real-time kinetic analysis in the absence of heparin.\nProtein representing the linker segments and c-jun leucine zipper without the C19 sequence (FIG. 2) was expressed, purified, and characterized as for C19jun. C19 peptide with an intrapeptide disulfide bond was synthesized, purified by HPLC, and characterized by mass spectroscopy. C19junΔhep protein was prepared by changing human c-jun residues Arg276, Arg279, Lys285, and Lys288 in the leucine zipper domain to glutamines. Expression, purification, and characterization was as for C19jun. […] The extracellular ligand-binding domain of human FGFR Ic (residues 1-377) and human erythropoietin receptor (residues 1-250) were fused to the Fc region of human IgG1, expressed in baculovirus and purified by protein A affinity chromatography. […] PDGF receptor Fc fusion protein was from R&D Systems."}, "[3]": {"test_system": "L6 myoblast cell lines stably expressing FGFR1c", "test": "c-fos mRNA expression in L6 myoblasts stably expressing FGFR1c", "type": "cell-based"}, "Swiss 3T3 cells [4]": {"test_system": "Swiss 3T3 cells", "test": "Swiss 3T3 mitogenesis with soluble receptor ECD competitors", "type": "cell-based", "protocol": "To further examine the specificity of C19jun for FGFR, Swiss 3T3 cells were stimulated with C19jun in the presence of protein representing the soluble extracellular binding domain (ECD) of various receptors used as binding competitors. The mitogenic activity of C19jun was abolished by pre-incubation of the fusion protein with excess FGFR1c ECD, but was unaffected by incubation with identical concentrations of the closely related PDGF receptor ECD or with erythropoietin receptor ECD. […] Similar results were observed when phosphorylation of MAPK was analyzed in these cells.\nProtein representing the linker segments and c-jun leucine zipper without the C19 sequence (FIG. 2) was expressed, purified, and characterized as for C19jun. C19 peptide with an intrapeptide disulfide bond was synthesized, purified by HPLC, and characterized by mass spectroscopy. C19junΔhep protein was prepared by changing human c-jun residues Arg276, Arg279, Lys285, and Lys288 in the leucine zipper domain to glutamines. Expression, purification, and characterization was as for C19jun. […] The extracellular ligand-binding domain of human FGFR Ic (residues 1-377) and human erythropoietin receptor (residues 1-250) were fused to the Fc region of human IgG1, expressed in baculovirus and purified by protein A affinity chromatography. Activity of the fusion proteins was confirmed by binding of [^125I]-labeled ligands. PDGF receptor Fc fusion protein was from R&D Systems."}, "Swiss 3T3 cells [5]": {"test_system": "Swiss 3T3 cells", "test": "Swiss 3T3 proliferation, WST-1 long term assay", "type": "cell-based", "settings": "WST-1, 4 successive days, 15 U/ml heparin, FIG. 4", "protocol": "Swiss 3T3 cells were plated on gelatin-coated 96-well microtiter plates in quiescent media containing the indicated concentrations of bFGF or C19-jun protein and 15 U/ml heparin and cell number estimated on each of 4 successive days by the WST-1 assay as per manufacturers instructions (Cell proliferation Reagent WST-1, no. 1644807, Boehringer-Mannheim)."}, "[6]": {"settings": "Swiss 3T3, identical concentration"}}, "data": [{"molecule": "C19jun: C19 sequence fused via flexible linker to human c-jun leucine zipper (residues 276-314) flanked by cysteines, polyhistidine tag; SEQ ID NO:41 (protein, SyArtificial Sequence) MAESGDDYCVLVFTDSAWTKICDWSHFRNGPGGGSGGGSGGGSGGGSGGGSRCGGRIARLEEKVKTLKAQNSELASTANMLREQVAQLKQKVMNHGGCGGSGGHHHHHH", "values": [{"measurement": "FGFR autophosphorylation", "setting": "FGFR", "value": "induced"}, {"measurement": "heparin dependence of mitogenic activity", "setting": "Swiss 3T3 fibroblasts", "value": "required for optimal mitogenic activity"}, {"measurement": "heparin dependence of morphogenic activity on PC12 cells", "setting": "PC12 cells", "value": "required for the morphogenic activity"}, {"measurement": "neurite outgrowth / PC12 cell differentiation", "setting": "PC12 cells; 1 nM bFGF or 2 nM C19-jun, 15 U/ml heparin, 4 days", "value": "induces PC12 cell differentiation as well or better than bFGF"}, {"measurement": "MAP kinase phosphorylation", "setting": "[1]", "value": "induced"}, {"measurement": "c-fos mRNA expression in control L6 cells", "setting": "control L6 cells", "value": "neither was active"}, {"measurement": "proliferation of human endothelial cells", "setting": "human endothelial cells", "value": "stimulated the proliferation"}, {"measurement": "heparin binding", "setting": "[2]", "value": "quantitatively and specifically bound to heparin agarose beads"}, {"measurement": "binding to immobilized FGFR ECD", "setting": "FGFR1c ECD", "value": "high affinity and specificity"}, {"measurement": "c-fos mRNA expression in FGFR-expressing L6 cells", "setting": "[3]", "value": "stimulated c-fos mRNA expression"}, {"measurement": "mitogenic activity after pre-incubation with excess FGFR1c ECD", "setting": "Swiss 3T3 cells [4]; Swiss 3T3", "value": "abolished"}, {"measurement": "mitogenic activity after incubation with PDGF receptor ECD", "setting": "Swiss 3T3 cells [4]; [6]", "value": "unaffected"}, {"measurement": "mitogenic activity after incubation with erythropoietin receptor ECD", "setting": "Swiss 3T3 cells [4]; [6]", "value": "unaffected"}, {"measurement": "Swiss 3T3 proliferation in long term assay", "setting": "Swiss 3T3 cells [5]", "value": "equal or greater extent than 1 nM bFGF"}, {"measurement": "Swiss 3T3 proliferation in long term assay", "setting": "Swiss 3T3 cells [5]; listed as C19-jun", "value": "as well or better than bFGF"}]}]}
